Results on one molecule are retold here after patent US20230151091A1 (NEW YORK UNIVERSITY, published 2023).

What is called Kd is the concentration at which binding is half-saturated.

Test [1] deals with T1, hECD: full-length extracellular region of human MuSK (E22 to T495) with C-terminal Avi- and His6-tags (human, UniProt O15146 22-495, biotinylated in vitro using the BirA enzyme).
T1 construct: also called human ECD; not shown: Avi- and His6-tags
T1 sequence: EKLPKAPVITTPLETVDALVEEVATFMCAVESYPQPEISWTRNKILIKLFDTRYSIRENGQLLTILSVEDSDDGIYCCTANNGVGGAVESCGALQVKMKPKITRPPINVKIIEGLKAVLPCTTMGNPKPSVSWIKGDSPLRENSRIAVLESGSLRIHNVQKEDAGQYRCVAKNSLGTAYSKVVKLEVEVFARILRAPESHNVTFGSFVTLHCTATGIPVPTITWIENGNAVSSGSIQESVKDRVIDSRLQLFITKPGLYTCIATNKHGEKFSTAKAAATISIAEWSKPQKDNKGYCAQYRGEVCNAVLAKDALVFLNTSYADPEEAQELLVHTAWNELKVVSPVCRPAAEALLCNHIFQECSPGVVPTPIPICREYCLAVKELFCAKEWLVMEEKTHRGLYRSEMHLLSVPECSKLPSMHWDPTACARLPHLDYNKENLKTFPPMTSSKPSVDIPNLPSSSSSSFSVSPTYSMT
Description: bead-binding assay, IgG format: biotinylated antigen on streptavidin beads, flow cytometry, 1:1 fit; average ± s.d., n=3. In general terms: A flow cytometer gives signals particle by particle.

In test [2] the target is T2, mFz: Fz domain and C-terminal flanking sequence of mouse MuSK (D307 to T494) with C-terminal Avi- and … (mouse, UniProt Q61006 307-494, limits assumed, biotinylated in vitro using the BirA enzyme).
T2 construct: also called mouse Fz; not shown: Avi- and His6-tags
T2 sequence (looked up): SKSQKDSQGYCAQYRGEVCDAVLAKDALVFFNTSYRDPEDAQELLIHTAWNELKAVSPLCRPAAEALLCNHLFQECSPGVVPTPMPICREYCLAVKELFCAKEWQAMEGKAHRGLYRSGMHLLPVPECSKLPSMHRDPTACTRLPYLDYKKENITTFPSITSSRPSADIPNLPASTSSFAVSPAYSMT
Described as above.

Test [3] addresses T3, hFz: Fz domain and C-terminal flanking sequence of human MuSK (K314-T495) with C-terminal Avi- and His6-tags (human, UniProt O15146 314-495, biotinylated in vitro using the BirA enzyme).
T3 construct: also called human Fz; not shown: Avi- and His6-tags
T3 sequence: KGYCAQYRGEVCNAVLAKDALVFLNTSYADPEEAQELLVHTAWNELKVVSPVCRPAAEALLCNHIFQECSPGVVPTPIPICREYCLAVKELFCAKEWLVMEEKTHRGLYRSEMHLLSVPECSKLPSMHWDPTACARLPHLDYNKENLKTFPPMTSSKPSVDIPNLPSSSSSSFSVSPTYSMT
The test is described as above.

In test [4] the target is T4, mECD: full-length extracellular region of mouse MuSK (E22 to T494) with C-terminal Avi- and His6-tags (mouse, UniProt Q61006 22-494, biotinylated in vitro using the BirA enzyme).
T4 construct: range 22-494; also called mouse ECD; not shown: Avi- and His6-tags
T4 sequence (looked up): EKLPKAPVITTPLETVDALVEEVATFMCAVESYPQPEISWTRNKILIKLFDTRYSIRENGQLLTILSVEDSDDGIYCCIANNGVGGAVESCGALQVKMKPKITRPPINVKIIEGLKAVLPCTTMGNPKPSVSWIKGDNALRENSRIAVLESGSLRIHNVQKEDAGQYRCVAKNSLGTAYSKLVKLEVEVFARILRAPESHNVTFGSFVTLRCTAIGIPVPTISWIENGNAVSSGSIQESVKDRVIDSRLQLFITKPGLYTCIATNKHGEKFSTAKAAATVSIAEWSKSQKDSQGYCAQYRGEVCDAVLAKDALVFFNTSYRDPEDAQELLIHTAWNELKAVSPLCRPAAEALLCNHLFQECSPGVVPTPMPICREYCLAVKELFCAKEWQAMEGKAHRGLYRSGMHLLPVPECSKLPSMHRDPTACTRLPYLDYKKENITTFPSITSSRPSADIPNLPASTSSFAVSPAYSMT
The test is described as above.

Test [5] concerns the target T5, mouse MuSK, endogenous (C2C12 myotubes; neuromuscular synapses of mice) (mouse, UniProt Q61006 22-868).
T5 construct: whole, on cells; also called MuSK at the synapse; synaptic MuSK
T5 sequence (looked up): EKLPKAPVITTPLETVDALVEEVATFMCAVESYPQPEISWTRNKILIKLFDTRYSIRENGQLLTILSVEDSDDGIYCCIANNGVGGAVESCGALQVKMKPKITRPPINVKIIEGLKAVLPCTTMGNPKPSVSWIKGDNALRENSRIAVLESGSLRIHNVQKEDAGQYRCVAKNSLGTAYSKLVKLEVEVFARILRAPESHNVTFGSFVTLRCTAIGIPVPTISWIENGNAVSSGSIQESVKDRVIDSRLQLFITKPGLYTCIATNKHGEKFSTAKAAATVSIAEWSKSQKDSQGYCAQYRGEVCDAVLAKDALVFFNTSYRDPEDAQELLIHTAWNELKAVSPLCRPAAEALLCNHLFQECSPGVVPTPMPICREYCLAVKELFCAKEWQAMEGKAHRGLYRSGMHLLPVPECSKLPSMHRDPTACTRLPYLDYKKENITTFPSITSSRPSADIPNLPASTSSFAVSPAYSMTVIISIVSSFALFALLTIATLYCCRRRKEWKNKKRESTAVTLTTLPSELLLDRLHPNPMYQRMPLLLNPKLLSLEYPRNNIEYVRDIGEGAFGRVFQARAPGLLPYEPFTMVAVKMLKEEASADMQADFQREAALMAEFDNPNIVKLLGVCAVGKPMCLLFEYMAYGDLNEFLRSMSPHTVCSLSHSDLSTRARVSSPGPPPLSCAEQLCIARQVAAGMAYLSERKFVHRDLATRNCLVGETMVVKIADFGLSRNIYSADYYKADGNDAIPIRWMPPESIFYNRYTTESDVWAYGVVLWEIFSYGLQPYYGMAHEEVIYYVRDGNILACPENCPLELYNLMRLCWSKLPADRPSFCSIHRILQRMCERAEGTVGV
Nature of the test: in vivo: wildtype mice injected i.p., diaphragm stained two days later with anti-human F(ab')2 Alexa 647 and Alexa 488-alpha-BGT; ratio of signal intensities at the synapse [continued].

B1: mIgG2a-X17 (antibody, V domains shown)
VH: EVQLVESGGGLVQPGGSLRLSCAASGFTISYSSIHWVRQAPGKGLEWVASIYSSSGSTYYADSVKGRFTISADTSKNTAYLQMNSLRAEDTAVYYCARGDHGYYVFGYLGMDYWGQGTLVTVSS
VL: DIQMTQSPSSLSASVGDRVTITCRASQSVSSAVAWYQQKPGKAPKLLIYSASSLYSGVPSRFSGSRSGTDFTLTISSLQPEDFATYYCQQSYKPGALITFGQGTKVEIK
notes: chimeric antibody of a human Fab (human CH1) and mouse IgG2a Fc with the LALAPG mutations; also called X17-mIgG2a-LALAPG; antibody X17
In the case of B1, the Kd was determined as 0.97 nM in test [1], 0.74 nM in test [2], 0.61 nM in test [3] and 1.1 nM in test [4]. Further, the “EC50 (read off the curve)” value in test [5] is around 0.5 mg/kg.
